Test results published in article PMC10329019, “Membrane translocation process revealed by in situ structures of type II secretion system secretins” (Nature Communications, 2023).

Key:
[1] = target: the molecule itself; test: cryo-EM structure; in situ cryo-ET subtomogram averaging of GspDα particles on the inner membrane of E. coli BL21 (DE3) minicells; about 32,000 particles, C15 symmetry, 9 Å; particle radius histogram
[2] = target: the molecule itself; test: cryo-EM structure; in situ cryo-ET subtomogram averaging of particles on the outer membrane of E. coli minicells overexpressing GspDβ and GspS; 514 particles, C15 symmetry, 19 Å; C5 refinement as a test of symmetry
[3] = target: the molecule itself; test: cryo-EM structure; in situ cryo-ET subtomogram averaging of particles on the outer membrane of E. coli minicells overexpressing only GspDβ; 723 particles, C15 symmetry, 16 Å; C5 refinement as a test of symmetry

B1: GspDα secretin (E. coli K12 strain), no tag (natural protein, UniProt P45758 24-650, looked up)
chain: ENEQYGANFNNADIRQFVEIVGQHLGKTILIDPSVQGTISVRSNDTFSQQEYYQFFLSILDLYGYSVITLDNGFLKVVRSANVKTSPGMIADSSRPGVGDELVTRIVPLENVPARDLAPLLRQMMDAGSVGNVVHYEPSNVLILTGRASTINKLIEVIKRVDVIGTEKQQIIHLEYASAEDLAEILNQLISESHGKSQMPALLSAKIVADKRTNSLIISGPEKARQRITSLLKSLDVEESEEGNTRVYYLKYAKATNLVEVLTGVSEKLKDEKGNARKPSSSGAMDNVAITADEQTNSLVITADQSVQEKLATVIARLDIRRAQVLVEAIIVEVQDGNGLNLGVQWANKNVGAQQFTNTGLPIFNAAQGVADYKKNGGITSANPAWDMFSAYNGMAAGFFNGDWGVLLTALASNNKNDILATPSIVTLDNKLASFNVGQDVPVLSGSQTTSGDNVFNTVERKTVGTKLKVTPQVNEGDAVLLEIEQEVSSVDSSSNSTLGPTFNTRTIQNAVLVKTGETVVLGGLLDDFSKEQVSKVPLLGDIPLVGQLFRYTSTERAKRNLMVFIRPTIIRDDDVYRSLSKEKYTRYRQEQQQRIDGKSKALVGSEDLPVLDENTFNSHAPAPSSR
notes: The untagged vector was used for cryo-ET imaging; the His-tagged one only for blots; also called Klebsiella-type secretin; GspDα multimer; copies: 15
[1]
  stoichiometry N: 15

B2: GspDβ secretin (ETEC H10407 strain) with hexahistidine tag, from pETDuet-gspDβ-his-gspS, co-expressed with GspS (natural protein, UniProt E3PJ86 41-686, looked up)
chain: EEATFTANFKDTDLKSFIETVGANLNKTIIMGPGVQGKVSIRTMTPLNERQYYQLFLNLLEAQGYAVVPMENDVLKVVKSSAAKVEPLPLVGEGSDNYAGDEMVTKVVPVRNVSVRELAPILRQMIDSAGSGNVVNYDPSNVIMLTGRASVVERLTEVIQRVDHAGNRTEEVIPLDNASASEIARVLESLTKNSGENQPATLKSQIVADERTNSVIVSGDPATRDKMRRLIRRLDSEMERSGNSQVFYLKYSKAEDLVDVLKQVSGTLTAAKEEAEGTVGSGREIVSIAASKHSNALIVTAPQDIMQSLQSVIEQLDIRRAQVHVEALIVEVAEGSNINFGVQWASKDAGLMQFANGTQIPIGTLGAAISQAKPQKGSTVISENGATTINPDTNGDLSTLAQLLSGFSGTAVGVVKGDWMALVQAVKNDSSSNVLSTPSITTLDNQEAFFMVGQDVPVLTGSTVGSNNSNPFNTVERKKVGIMLKVTPQINEGNAVQMVIEQEVSKVEGQTSLDVVFGERKLKTTVLANDGELIVLGGLMDDQAGESVAKVPLLGDIPLIGNLFKSTADKKEKRNLMVFIRPTILRDGMAADGVSQRKYNYMRAEQIYRDEQGLSLMPHTAQPVLPAQNQALPPEVRAFLNAGRTR
notes: GspDβ, Vibrio-type type II secretion system secretin encoded in the T2SSβ operon, ETEC H10407 strain; Probably the same C-terminally tagged chain as m2 (surmised); also called Vibrio-type secretin; copies: 15
[2]
  stoichiometry N: 15

B3: GspDβ secretin (ETEC H10407 strain) with C-terminal hexahistidine tag, from pETDuet-gspDβ-his, expressed alone (natural protein, UniProt E3PJ86 41-686, looked up)
chain: B2 chain
notes: GspDβ, Vibrio-type type II secretion system secretin encoded in the T2SSβ operon, ETEC H10407 strain; The results name BL21(DE3) for this experiment, the methods name Rosetta (DE3) for cryo-ET imaging; also called Vibrio-type secretin; source: E. coli Rosetta (DE3) minicells (co-transformed with pBS58), pETDuet-gspDβ-his, overexpressed, imaged in the cells; copies: 15
[3]
  stoichiometry N: 15
